Results published in article PMC8723827 (2022).

Molecular target: His-tagged SARS-CoV-2 RBD (early pandemic, Wuhan) (SARS-CoV-2, UniProt P0DTC2)
Test: SPR

Row | Binder | koff [s⁻¹]
1 | EY6A mAb (IgG) (antibody, V domains shown) VH: EVQLVESGGGVVQPGRSLRLSCAASAFTFSSYDMHWVRQAPGKGLEWVAVISYDGSNKYYADSVKGRFTISRDNSKNTLYLQMNSLRAEDTAVYYCAKDGGKLWVYYFDYWGQGTLVTVSS VL: not shown | 0.0048
2 | Beta-55 mAb (IgG) (antibody, V domains shown) VH: QVQLQESGPGLVKPSETLSLTCTVSGDSISSSRYYWGWIRQPPGKGLEWIGTFYYSGITYYNPSLKSRVTIFVDTSKNQFSLKLSSVTAADTAVYYCARPRPPDYYDNSGALLFDIWGQGTMVTVSS VL: AIRMTQSPSTLSASVGDRVTIACRASQSISAWLAWYQQKPGKAPKLLIYKASSLESGVPSRFSGSGSGTEFTLTINSLQPDDFATYYCQQYISSSPWTFGQGTKVEIK | 0.00018
